{
  "source": "patent US20030113787A1",
  "about": "(Takeda / Millennium, published 2003)",
  "key": {"[1]": {"target": "T1, Myc-tagged CARD-9 (human, UniProt Q9H257 1-536)", "T1 construct": "Expressed in 293T or Rat-1 cells; Species not restated; also called pCI-Card-9-myc", "T1 sequence": "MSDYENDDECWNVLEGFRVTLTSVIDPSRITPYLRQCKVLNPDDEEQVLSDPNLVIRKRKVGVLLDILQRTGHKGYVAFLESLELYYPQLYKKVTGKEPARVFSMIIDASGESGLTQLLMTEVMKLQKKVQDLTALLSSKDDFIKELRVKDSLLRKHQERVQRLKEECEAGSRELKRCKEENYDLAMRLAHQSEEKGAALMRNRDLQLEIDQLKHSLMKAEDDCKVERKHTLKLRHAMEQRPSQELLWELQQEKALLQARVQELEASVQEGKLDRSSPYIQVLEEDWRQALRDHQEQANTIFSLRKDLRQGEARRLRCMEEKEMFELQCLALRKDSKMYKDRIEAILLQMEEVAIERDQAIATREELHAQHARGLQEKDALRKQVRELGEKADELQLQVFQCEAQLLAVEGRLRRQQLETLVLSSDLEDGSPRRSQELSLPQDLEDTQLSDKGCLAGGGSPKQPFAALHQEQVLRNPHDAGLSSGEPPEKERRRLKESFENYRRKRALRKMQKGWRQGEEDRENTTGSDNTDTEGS", "test": "co-localization by immunofluorescence in co-transfected Rat-1 cells", "source_text": "To determine the cellular localization of CARD-9, and to confirm that CARD-9 associated intracellularly with Bcl-10 when the two proteins were co-expressed, Rat-1 cells were transfected with a Myc-tagged vector encoding full-length CARD-9, and with an HA-tagged vector encoding full-length Bcl-10. The expressed proteins were detected using a mixture of a monoclonal anti-Myc antibody and a polyclonal rabbit anti-HA antibody. Briefly, Rat-1 cells were transfected in glass chamber slides (BioCoat, Becton-Dickinson Labware) with pCI-Bcl-10-HA or pCI-Card-9-myc, alone or together, using FuGENE-6 (Roche Molecular Biochemicals) for 20 hours. Cells were fixed in 4% paraformaldehyde, permeabilized and blocked in buffer containing 0.4% Trition X-100, and sequentially incubated with primary and secondary antibodies. Antibodies were rabbit anti-HA polyclonal Y-11 (Santa Cruz Biotechnology), mouse anti-myc monoclonal 9E10 (Oncogene Research Products), Alexa-488 Goat anti-mouse IgG (Molecular Probes) and Texas-Red Goat anti-rabbit IgG (Jackson Immunoresearch Laboratories). No cross-reactivity was observed between any of the antibodies. Nuclei were stained with Hoechst 33258. […]"}, "[2]": {"target": "T2, CARD-11/DCARD (human, UniProt Q9BXL7 134-1154)", "T2 construct": "also called CARD-11 truncation mutant lacking the N-terminal CARD", "T2 sequence": "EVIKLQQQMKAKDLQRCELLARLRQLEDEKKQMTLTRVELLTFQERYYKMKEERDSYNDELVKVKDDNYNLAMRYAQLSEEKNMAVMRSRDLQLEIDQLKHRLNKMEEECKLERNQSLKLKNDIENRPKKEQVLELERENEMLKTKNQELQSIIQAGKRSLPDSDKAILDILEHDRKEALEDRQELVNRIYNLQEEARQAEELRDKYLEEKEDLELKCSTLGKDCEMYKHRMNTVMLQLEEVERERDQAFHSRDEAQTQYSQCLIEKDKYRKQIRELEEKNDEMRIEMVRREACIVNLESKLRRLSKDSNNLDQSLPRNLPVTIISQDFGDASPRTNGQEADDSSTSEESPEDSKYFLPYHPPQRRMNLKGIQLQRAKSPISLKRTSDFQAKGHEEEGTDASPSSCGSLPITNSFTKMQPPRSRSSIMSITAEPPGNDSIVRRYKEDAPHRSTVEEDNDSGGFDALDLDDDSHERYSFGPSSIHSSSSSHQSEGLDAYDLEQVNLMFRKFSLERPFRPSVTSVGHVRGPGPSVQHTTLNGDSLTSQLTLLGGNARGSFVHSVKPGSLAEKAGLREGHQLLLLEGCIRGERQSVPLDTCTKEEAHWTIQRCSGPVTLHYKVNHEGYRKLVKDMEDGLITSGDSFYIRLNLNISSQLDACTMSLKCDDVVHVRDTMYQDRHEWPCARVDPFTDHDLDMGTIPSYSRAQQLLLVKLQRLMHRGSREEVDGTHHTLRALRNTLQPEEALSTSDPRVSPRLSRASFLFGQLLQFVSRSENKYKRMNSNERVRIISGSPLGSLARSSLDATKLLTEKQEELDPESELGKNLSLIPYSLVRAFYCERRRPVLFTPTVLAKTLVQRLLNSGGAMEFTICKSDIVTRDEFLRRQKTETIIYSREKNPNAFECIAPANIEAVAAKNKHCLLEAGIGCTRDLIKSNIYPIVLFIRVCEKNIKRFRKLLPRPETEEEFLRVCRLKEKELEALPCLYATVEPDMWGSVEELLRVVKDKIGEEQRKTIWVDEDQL", "test": "co-localization by immunofluorescence in co-transfected cells"}, "[3]": {"target": "T3, Myc-tagged CARD-11 (full-length) (human, UniProt Q9BXL7 8-1154)", "T3 construct": "Used in the co-localization and Bcl-10 phosphorylation experiments; also called full-length CARD-11", "T3 sequence": "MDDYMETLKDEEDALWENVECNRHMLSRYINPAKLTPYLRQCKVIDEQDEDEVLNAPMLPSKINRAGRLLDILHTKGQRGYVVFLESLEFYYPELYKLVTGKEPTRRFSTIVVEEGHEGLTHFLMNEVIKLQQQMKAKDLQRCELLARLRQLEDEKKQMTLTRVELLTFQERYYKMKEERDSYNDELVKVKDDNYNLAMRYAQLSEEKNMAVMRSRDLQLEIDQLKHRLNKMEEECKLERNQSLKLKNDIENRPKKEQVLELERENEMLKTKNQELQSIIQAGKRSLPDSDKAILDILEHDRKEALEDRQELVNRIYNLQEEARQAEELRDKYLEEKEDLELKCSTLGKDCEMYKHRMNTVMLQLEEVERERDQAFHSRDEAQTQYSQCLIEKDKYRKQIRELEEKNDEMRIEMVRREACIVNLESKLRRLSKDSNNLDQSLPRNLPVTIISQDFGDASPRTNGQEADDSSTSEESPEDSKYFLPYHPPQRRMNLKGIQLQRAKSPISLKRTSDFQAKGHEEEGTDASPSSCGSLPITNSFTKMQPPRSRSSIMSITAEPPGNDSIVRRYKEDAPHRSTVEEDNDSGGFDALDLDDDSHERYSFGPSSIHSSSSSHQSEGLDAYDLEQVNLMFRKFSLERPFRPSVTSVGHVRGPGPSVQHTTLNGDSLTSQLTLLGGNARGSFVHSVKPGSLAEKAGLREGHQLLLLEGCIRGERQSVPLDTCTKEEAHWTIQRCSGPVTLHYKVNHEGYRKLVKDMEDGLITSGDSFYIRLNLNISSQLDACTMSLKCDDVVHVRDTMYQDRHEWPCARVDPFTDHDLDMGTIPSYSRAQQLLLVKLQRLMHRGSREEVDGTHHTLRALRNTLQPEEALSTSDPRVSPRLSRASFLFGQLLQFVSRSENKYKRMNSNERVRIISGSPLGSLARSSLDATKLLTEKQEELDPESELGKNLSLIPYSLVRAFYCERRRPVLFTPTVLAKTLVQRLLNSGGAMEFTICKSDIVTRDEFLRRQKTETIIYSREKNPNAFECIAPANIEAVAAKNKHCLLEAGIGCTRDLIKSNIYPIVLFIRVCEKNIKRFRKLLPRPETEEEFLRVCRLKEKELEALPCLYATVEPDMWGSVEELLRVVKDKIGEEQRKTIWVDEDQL", "test": "co-localization by immunofluorescence in co-transfected cells"}, "[4]": {"target": "T4, Myc-CARD-11/CC (human, UniProt Q9BXL7 129-449)", "T4 construct": "NOT the whole entry: only the coiled-coil region stood in the assay", "T4 sequence": "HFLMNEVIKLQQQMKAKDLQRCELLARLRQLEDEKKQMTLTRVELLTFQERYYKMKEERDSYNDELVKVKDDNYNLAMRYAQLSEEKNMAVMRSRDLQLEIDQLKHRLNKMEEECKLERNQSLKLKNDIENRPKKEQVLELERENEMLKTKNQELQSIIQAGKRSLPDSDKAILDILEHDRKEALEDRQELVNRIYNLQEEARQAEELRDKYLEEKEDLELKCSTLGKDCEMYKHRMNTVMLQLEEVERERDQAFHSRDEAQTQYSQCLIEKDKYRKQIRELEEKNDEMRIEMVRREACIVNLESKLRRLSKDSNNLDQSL", "test": "co-localization by immunofluorescence in co-transfected cells"}, "[5]": {"target": "T4, Myc-CARD-11/CC", "test": "co-immunoprecipitation from transfected 293T cells (anti-Flag IP, anti-Myc blot)", "description": "The interaction between CARD-11 and Bcl-10 was next examined in cells by overexpressing CARD-11 is cells and performing co-immunoprecipitation assays. These assays were performed as follows. Plasmids expressing CARD-11 with C-terminal Myc epitopes were constructed using pCMV-Tag 5A (Stratagene Corp., La Jolla, Calif.). Constructs encoding epitope-tagged Bcl-10 were described previously (Srinivasula et al., […] J. Biol. Chem. 274:17946). 293T cells transfected with the plasmids were lysed in 50 mM Tris, pH 8.0, 120 mM NaCl, 1 mM EDTA, 0.5% Nonidet P-40 buffer and incubated with anti-Flag-M2 monoclonal antibody (Sigma Co.). The immune complexes were precipitated with protein G-Sepharose (Amersham Pharmacia Bio), washed extensively, and then subjected to SDS-polyacrylamide gel electrophoresis and immunoblotted with polyclonal anti-Myc antibodies (Santa Cruz Biotechnology, Inc.)."}, "[6]": {"target": "T5, Bcl-10-CARD/AD (mouse, UniProt Q04207 364-549; O95999 1-104)", "T5 sequence (looked up)": "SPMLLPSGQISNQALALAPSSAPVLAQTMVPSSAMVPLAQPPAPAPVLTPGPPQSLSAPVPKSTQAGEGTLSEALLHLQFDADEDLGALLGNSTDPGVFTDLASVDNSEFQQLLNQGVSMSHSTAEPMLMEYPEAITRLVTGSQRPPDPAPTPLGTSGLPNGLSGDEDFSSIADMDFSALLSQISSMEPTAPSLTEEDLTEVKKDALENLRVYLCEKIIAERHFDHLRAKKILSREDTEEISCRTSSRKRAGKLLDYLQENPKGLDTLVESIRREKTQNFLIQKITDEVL", "test": "cell-based or functional assay"}},
  "data": [
    {"binder": "HA-tagged Bcl-10 (other, UniProt O95999 1-233, looked up, not shown: small tags and cut ends, Expressed in Rat-1 or other transfected cells; also called pCI-Bcl-10-HA; HA-Bcl-10) MEPTAPSLTEEDLTEVKKDALENLRVYLCEKIIAERHFDHLRAKKILSREDTEEISCRTSSRKRAGKLLDYLQENPKGLDTLVESIRREKTQNFLIQKITDEVLKLRNIKLEHLKGLKCSSCEPFPDGATNNLSRSNSDESNFSEKLRASTVMYHPEGESSTTPFFSTNSSLNLPVLEVGRTENTIFSSTTLPRPGDPGAPPLPPDLQLEEEGTCANSSEMFLPLRSRTVSRQ", "values": [
      {"measurement": "binding result", "setting": "[1]", "value": "binds"},
      {"measurement": "binding result", "setting": "[2]", "value": "no binding"},
      {"measurement": "binding result", "setting": "[3]", "value": "binds"},
      {"measurement": "binding result", "setting": "[4]", "value": "no binding"}
    ]},
    {"binder": "Flag-tagged Bcl-10 (other, UniProt O95999 1-233, looked up, not shown: small tags and cut ends, Expressed in 293T cells; also called Flag-Bcl-10) MEPTAPSLTEEDLTEVKKDALENLRVYLCEKIIAERHFDHLRAKKILSREDTEEISCRTSSRKRAGKLLDYLQENPKGLDTLVESIRREKTQNFLIQKITDEVLKLRNIKLEHLKGLKCSSCEPFPDGATNNLSRSNSDESNFSEKLRASTVMYHPEGESSTTPFFSTNSSLNLPVLEVGRTENTIFSSTTLPRPGDPGAPPLPPDLQLEEEGTCANSSEMFLPLRSRTVSRQ", "values": [
      {"measurement": "binding result", "setting": "[5]", "value": "no binding"}
    ]},
    {"binder": "CARD10-CARD/BD (other, yeast) MKLLSSIEQACDICRLKKLKCSKEKPKCAKCLKNNWECRYSPKTKRSPLTRAHLTEVESRLERLEQLFLLIFPREDLDMILKMDSLQDIKALLTGLFVQDNVNKDAVTDRLASVETDMPLTLRQHRISATSSSEESSNKGQRQLTVSMPGRAEAGEAEEEAGAGSGSEAEEDALWERIEGVRHRLARALNPAKLTPYLRQCRVIDEQDEEEVLSTYRFPCRVNRTGRLMDILRCRGKRGYEAFLEALEFYYPEHFTLLTGQEPAQRCSMILDEEGPEGLTQFLMT", "values": [
      {"measurement": "relative luciferase activity (mammalian two-hybrid reporter)", "setting": "[6]", "value": 340, "unit": "fold"}
    ]}
  ]
}
